Paper PMC9563052

Target: fibrinogen γ-chain C-terminal residues 390-411 fused to GST
Experiment: ELISA; ligand (γC390-411 or γC151-411) coated, soluble αIIbβ3 (1 µg/mL) pre-incubated with chemokine (CCL5, CXCL12 or CX3CL1) for 10 min, then 1 h at room temperature in HEPES-Tyrodes buffer with 1 mM CaCl2

fold binding to γC390-411 with CCL5 (50 µg/mL, 1 mM Ca2+) over 1 mM Mn2+ alone: 4.5 fold
fold binding to γC390-411 with CXCL12 (50 µg/mL, 1 mM Ca2+) over 1 mM Mn2+ alone: 3.5 fold
Substance: soluble recombinant integrin αIIbβ3 (from UniProt P08514 32-1039; P05106 27-718) (complex)
